# Test results taken from paper PMC3725402, “Evolution of the key alkaloid enzyme putrescine N-methyltransferase from spermidine synthase” (Frontiers in Plant Science, 2013).
# System: NCCCCN
# Assay: purified protein
# Conditions: PMT activity, co-substrate SAM, 20 mM HEPES pH 8.0, 37°C, 2 mM DTT, 1 mM ascorbic acid
row,Substance,Km [µM]
1,DsPMT (putrescine N-methyltransferase) (Datura stramonium),190 ± 27.67
2,DsPMT (putrescine N-methyltransferase) (Datura stramonium; H108L),3130 ± 732.59
